Assay: yeast display, Sf9 membrane polyspecificity reagent, FACS + sequencing; frameworks hold sequencing errors
In short: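 Using colony PCR, genes from sorted yeast display clones were amplified, then sequenced on MiSeq at 2 × 250 and filtered by CDR length. The clones had been stained with 10% biotinylated, detergent-solubilized Sf9 membrane reagent for 1 hour at 4 °C and sorted by FACS into low and high (top ~1%) gates on anti-HA and streptavidin fluorescence. Polyreactivity labels come from the gate of origin.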

Row | Sequence | polyreactivity (PSR sort gate)
1 | QVQLQESGGGLVKAGGSLRLSCAASGNISPRDAMGWYRQAPGEERDLVASNAYSAITYYADCVKGRYTISRDNAKNTVYLQINSLKPEDTEVYYCAVYQFTYPVFPAYWGQGTQVTVSS | low polyreactivity
2 | QVQLVESGGGLVQAGGSLRLSCAASGFTFSWYAMGWYRQAPGKERELVAVITGAGITDYADSVKGRFTISRDNAKNTVYLQMNSLKPEDTAVYYCNAKSDRGVSGSGSGAYDYWGQGTQVTVSS | low polyreactivity
3 | QVQLVESVGGLVKAGVSLRLSCAASGYIFPYYAMGWYRQAPGKERELVAAISRSGGGTYYADSVKGRFTISRYNAKNTVYFQMKSLKPVVTAVYYFNRRSGQVDVYDYWGQGTKVTVSS | low polyreactivity
4 | QVQLVESGGGLVQAGGSLRLSCAASGRIFLTYAMGWYRPAPGKERELVAAIRSRSGTTYYADSVKGRFTISRDNAKNTVYLQMNRLKPEDTAVFYCAAGGKSRSYYWGQGTQVTVSS | high polyreactivity
5 | QVQLVESGGGLVQAGGSLRLSCAASGITFQHYAMGWYRQAPGKERELVAAITWRGSNTYYADSVKGRFTISRDNAKNTVYLQMNSLKPEDTAVYYCAAVLSLRSRNYWGHGTQVTVSS | high polyreactivity
6 | QVQLVESGAGLVQAGGSLRLSCADSVNTFWYYTMGWYRQAPGKERELVAAISRGGRPYYADSVKGRFTISRDNAKNTVYLQMNSLKPEDTAVYNCNKPAPYTGSFDRSGIFDYWGQGTQVTVSS | high polyreactivity
7 | QVQLVESGGGLVQAGGSLRLSCAASGSTFTFNAMGWYRQAPGKERELVAAIRWSTGGTYYADSVKGRFTISRDNAKNTVYLQMNSLKPEDTAVYYCAAQFVPYFYFSKYDYWGQGTQVTVSS | low polyreactivity
8 | QVQLVESGGGLVQAGGSLRLSCAASGSIFTGYAMGWYRQAPGKERELVAAIRTRGGSTYYADSVKGRFTISRDNAKNTVYLQMNSLKPEDTAVYYCAKRYYGWYGNFDYWGQGTQVTVSS | high polyreactivity
9 | QVQLVESGGGLVQAGGSLRLSCAASGSIFDIYGMGWYRKAPGKERELVASISGGAGSTNYADSVKGRFTISRDNAKNTVYLQMNSLKPEDTAVYYCAAEVYVPDYFQHKFDVEYEYWGQGTQVTVSS | low polyreactivity
10 | QVQLVESGGGLVQAGGSHRLSCAASGSIFGVYVMGWYRQAPGKERELVAAITRGASTNYADSVKGRFTISRDNAKNSVYLQMNSLKPEDTAVYYCAARQVSVSGHQYGYWGQGSQVTVSS | low polyreactivity
11 | QVQLVESGGGLVQAGGSLRLSCADSGFTFLSNVMGWYRQAPGKERELDAAINYSGDGTYYADSVKGRFTISRDNAKNTVYLQMNSLKPEDSAVYYCAADVEYYRDVPPQVYVSDDYWGQGTQVTVSS | low polyreactivity
12 | QVQLVESGGGLVQAGGSLRLSCAASGYIFVVNAMGLDRQAPGKERELVAAIDWGGGSTYADSVKGRFTISRDNAKNTVYLQMNSLKPEDTAVYYCAADLWPYPNDYWGQGTQVTVSS | low polyreactivity
13 | QVQLVESGGGLVQAGGSLRLSCAASGSIFGRNDMGWYRQAAGKERELVAAISKRGGRTYYADSVKGRFTISRDNAKNTVYLQMNSLKPEDTAVYYCAADQPTLAYPGGYSAGMDYWGQGTQVTVSS | high polyreactivity
14 | QVQLVESGGGLVQAGGSLRLSCAASGRIFYGYAMGWYRQAPGKERELVAAISWRGDSTYYADSVKGRFTISRDNAKNTVYLQMNSLKPEDTAVYYCAARRPGYYYPSKFDYWGQGTQVTVSS | high polyreactivity
15 | QVQLVESGGGLVQAGGSLRLSCAASGIIFFIYAMGWYRQAPGKERELVARISWRGGSTSYADSVKGRFTISRDNAKNTVYLQMNSLKPEDTAVYYCAAGVYSFRYDSWGQGTQVTVSS | low polyreactivity
16 | QVQLVESGGGLVQAGGSLRLSCAASGYTIGIYAMGWYRQAPGKERELVAAISFSDGTTYYADSVKGRFTISRDNAKNTVYLQMNSLKPEDTAVYYCAAAAGGTVVGEGDYWGQGTQVTVSS | low polyreactivity
17 | QVQLVESGGGLVQAGGSLRLSCAASGLTFNFNAMGWYRQAPGKERELVAAISYRAGSTYYADSVKGRFTISRDNAKNSVYLQMNSLKPEDTAVYYCAADGYYYLKSGTYVSDYWGQGTQVTVSS | low polyreactivity
18 | QVQLVESGGGLVQAGGSLRLSCSASGFTFRWYTMGWYTQSPGNERELVAAINYSGGSTYYADSVKGRFTISRDNAKNTVYLQMNSLKPEDTAVYYCAAQIYFPGRRYDYWGQGTQVTVSS | high polyreactivity
19 | QVQLVESGGGLVQAGGTLRLSCAASGSTFGWYAMGWYRQAPGKVREFVAAIRGGGSSTYYADSVKWRFTISRDNAKNSVSLQKNSLKQEVTAVYYCAAVTSQLYGKRYYYWGQGTQGTVSS | high polyreactivity
20 | QVQLGESGGGLVQAGGSLRLSCAASGSIFYGYAMGWYRHAPGKERELVAAITRDGSTNYADSVKGRFTISLDNAKNTVYLQMNSLKPEDTAVYYCAADTRSRRLSLVRRDYWGQGTQVTVSS | high polyreactivity
21 | QVQLVESGGGLVQAGGSLRLSCAASGRIFVYYTMGWYRPAPGKEREFVAAITRSGGRTYYADSVKGRFTISRDNAKNTVYLQMNSLKPEDTAVYYCNRDPTYLAYYIKYDSWGQGTQVTVSS | high polyreactivity
22 | QVQLVESGGGLVQAGGSLRLSCAASGSIRYNAMGWYRQAPGKERELVAAISYRGGTTYYADSVKGRYTISRDNAKNTVYLQMNSLKPEDTAVYYCNAGVRAYGYSAKYYYWGQGTQVTVSS | high polyreactivity

Row | Sequence | polyreactivity (PSR sort gate)
23 | QVQLVESGGGLVQAGGSLRLSCAASGSTFLKYAMGWYKHAPWKERELVAAITYRGGTTYYADSVKGRFTISRDNAKNSVYFQMNSLKPVDTAVYYCNARRDYDMDWGQGTLVTVSS | high polyreactivity
24 | QVQLVESGGGLVQAGGSLRLSCAASGFTSQYYAMGWYRQAPGKERELVAAITLRDGSTYYADSVKGRFTISRDNAKNTVYLQMNSMKPEDTAVYYCNTDATSDPYGFGYWGQGTQVTVSS | low polyreactivity
25 | QVQLVESGGGLVQAGGSLRLSCSPSGSILYGNAMGWYRQAPGKERELVAAITSGGSTYYADSVKGRFTISRDNAKNTVYLQMNSLKPEDTAVYYCNTVWATKGDYWGHGTQVTVSS | high polyreactivity
26 | QVQLVESGGGLVQAGGSLRLSCAASGFTFCSNAMGWYRQAPGKERELVAAITWSGGRTYYADSVKGRFTISRDNAKNTVYLQMNSLKPEDTAVYYCNAYRNWWWSQYDYWGQGTQVTVSS | high polyreactivity
27 | QVQLVESGGGLVQAGGSLRLSCAASGSTFRYNAMGWYRQAPGKEREMVATITWSGGSTYYADSVKGRFTISRDNAKNTVYLQMNSLKPEDTAVYYCAKLPFPVYYGGSYKYYYWGLGTQVTVSS | high polyreactivity
28 | QDQLVESRGGLVQAGGSLRLSSAASGFTLVVNAMGWYRQAPGKERELVAAITSRCGGTYYADSVKGRFTISRDKANNSVYLQMNSLKPEDTAVYYCAAPSLIVSTHRYGYWGQGTEVTVSS | low polyreactivity
29 | QVQLVESGGGLVQAGGSLSLSCAASGRTFGYYTMGWYRQAPGKERELVAAINWGGSRTYYADSVKGRFTISRDNAKNTVYLEMNSLKPEDTAVYYCAADVYRQWADDSWGLGTQVTVSS | high polyreactivity
30 | QVQLVESGGGLVQAGGSLRLSCAASGNIFADYAMGWYRQAPGKERELVAAISRGGITSYADSVKGRFTISRDNAKNTVYLQMNSLKPEDTAVYYCATDRYDVYDSLGFGYWGQGTQVTVSS | low polyreactivity
31 | QVQIVESGGGLVQAGGSLRLSCAASGRIIGTYAMGWYRQAPGKERELVATISYSSGRTYYADSVKGRFTISRDNAKNTVYLQMNSLKPEVTAVYYCAAVGTGSSLRYDYWGQGTQVTVSS | high polyreactivity
32 | QVQLVESGGGLVQAGGSLRLSCAASGFIFYSYTMVWYRQAPGKERELVASISRRGGITYYADSVKGRFTISRDNAKNTVYLQMNILIPEDTAVFYCAAYSWRRQGDHYDYWGQGTKVTVSS | high polyreactivity
33 | QVQLVESGGGLVQAGGSLRLSCAASGLTFIYNAMGWYRQAPGKERELVAAISGNGGDTYYADSVKGRFTISRDNAKNTVYIQMNSLKPEDTAVYYCAADYAYTPITWDEYWGQGTQVTVSS | low polyreactivity
34 | QVQLVESGGGLVQAGGSLRLSCAASGRILGGNTMGWYRQAPGKERELVAGISYSGGRTYYADSVKGRFTISRDNAKHTVYLQMNSLKPEDTAVYYCAAEYDWYSYQLDYWGQGTQVTVSS | high polyreactivity
35 | QVQLVESGGGLVQAGGSLRLSCAASGRICGSYAMGWYRQAPGKERELVADISWRGTSTYYADSVKGRFTISRDIAKNTVYLQMNSLKPEDTAVYYCAARGLWPYDYWGQGTQVTVSS | low polyreactivity
36 | QVQLVESGGGLVQAGGSLRLSCAASGSTGGYAMGWYRQAPGKERELVARISYSGGSTYYADSVKGRFTISRDNAKNTVYLQMNSLKPEDTAVYYCAARILYRYYYWGQGTQVTVSS | high polyreactivity
37 | QVQLVESGGGLVQAGGSLRLSWAASGSTFNVYAMGWYRQAPGKERELVAGIRDSDGSTNYADSVKGRFTISRDNAKNTVYLQMNSLKPEDTAVYYCAADLYDINWSVWLDYWGQGTQVTVSS | low polyreactivity
38 | QVQLVESGGGLVQAGGSLRLSCAASGRTFNVNAMGWYRQAPGKERELVASITWSDGSTYYADSVKGRFTISRDNAKNTVYLQMNSLKPEDTAVYYCNVTYGLESSYPRDDYWGQGTQVTVSS | low polyreactivity
39 | QVQLVESGGGLVQAGGSLRLSCTASGFTFVYYAMGWYRQAPGKERELVASISRSGGSTYYADSVKGRFTISRDNAKNTVYLQMNSLKPEDTAVYYCNARYGRTALLDYWGQGTQVTVSS | high polyreactivity
40 | QVQLVESGGGLVQAGGSLRLSCAASGRTFYRNAMGWYRQAPGKERELVATITRGGSTNYADSVKGRFTISRDNAKNTVYLQMNSLKPEDTAVYYCAAAQPGTNAYRVGSWGQGTQVTVSS | high polyreactivity
41 | QVQLVASGGGLVQAGGSLRFSCAASGRPLSYYAMGWYREAPGKERELVAAISRRGGSTYYADSVKGRFTISRDNAQNTVYIQMNSLKPKDTAVYYCAAETFDYADYIANGSGEYDYWGQGTQVTVSS | high polyreactivity
42 | QVQLVESGGGLVQAGGSLRLSCAASGSIFAAYTMGWYRQAPGKERELVATISSGGSTYYADSVKGRFTISRDNAKNTVYLQMNSLKPEDTAVYYCAAVAYTYTEYEYWGQGTQVTVSS | low polyreactivity
43 | QVQLVESGGGLVQAGGSLRLSCAASGYTILIYAKGWYRQAPGKERELVASISRSGGSTYYADSVKGRFTISRDNAKNTVYLQMNSLKTEDTAVYYCNADFGYDSVVEYDYWGQGTQVTVSS | low polyreactivity

— the nanobody polyreactivity screen of Harvey et al. (2022)
